From patent publication US4374928A, “Novel reductase” (Hoffmann-La Roche Inc., priority 1981, dated 1983) come the findings set out here.

The target of assay [1] is T1, peptide MetSO reductase (Escherichia coli, UniProt P0A744).
T1 construct: made in house; host or cells: E. coli Z19 cells (endogenous enzyme, not recombinant; ammonium sulfate, DE-52, Ultrogel AcA-44, DEAE-Sephadex)
Briefly: Inhibition of the reduction of MetSO-L12 by excess free MetSO. It is filed as biochemical, E. coli. As to conditions: 1×10^-4 M MetSO, about 60 times the concentration of MetSO-L12; read-out: inhibition of the enzymatic activity of peptide MetSO reductase. How it is done: The assay for the reduction of MetSO-L12 to L12 is based on the ability of L12-transacetylase to specifically acetylate the amino terminal serine of Met-L12 to form acetyl-Met-L12, i.e. L7. A two-step incubation was used. […] After a 60 min incubation at 37°, the reaction mixtures were placed on ice and to each reaction mixture were added 2 μmol of sodium arsenite, 1.2 μg partially purified L12-transacetylase (see below) and [^3 H] acetyl-CoA (935 pmoles, 237 cpm/pmol) and the volume brought to 50 μl. The second incubation (acetylation reaction) was for 5 min at 37°, after which the reaction mixtures were diluted with 3 ml of cold buffer A and filtered through a nitrocellulose filter. The filters were washed with 10 ml of this same buffer, dissolved in scintillation fluid and the radioactivity determined. Under these conditions L12 and acetyl-L12 are quantitatively retained by the nitrocellulose filter. The results are reported as pmoles of acetyl-L12 formed under these conditions.

The test system of assay [2] is Met-L12. In words: L12-transacetylase assay: acetylation of Met-L12. It is filed as biochemical, E. coli. How it is done: The fractions containing the enzyme activity were pooled (750 mg), concentrated and applied to a hydroxyapatite column (2×15 cm) equilibrated with a buffer containing 25 mM KPO4, pH 6.9, 1 mM β-mercaptoethanol and 10% glycerol. The column was eluted with a gradient from 25 mM to 250 mM KPO4, pH 6.9, containing 1 mM β-mercaptoethanol and 10% glycerol and the fractions containing enzymatic avtivity were pooled and concentrated (72 mg). This procedure yielded a 225 fold purification of the enzyme. Under standard conditions of assay as set forth by Brot and Weissbach [Biochem. Biophys. Res. Commun. 49, 673 (1972)] this fraction acetylated 46 nmols of Met-L12 per mg protein in 5 min. […] These properties are essential in order to use the enzymatic acetylation of Met-L12 as an assay for MetSO-L12 reduction. It was seen that at all concentrations of Met-L12, only one-third of the protein is acetylated.

For orientation: inhibition means the change of the read-out against control, counted positive when it falls.

T1 sequence (P0A744 2-212): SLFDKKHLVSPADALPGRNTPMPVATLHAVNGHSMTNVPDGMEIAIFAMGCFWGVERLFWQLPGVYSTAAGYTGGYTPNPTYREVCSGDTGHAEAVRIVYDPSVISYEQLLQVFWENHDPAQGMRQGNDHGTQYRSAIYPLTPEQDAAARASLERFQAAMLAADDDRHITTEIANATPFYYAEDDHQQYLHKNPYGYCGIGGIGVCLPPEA

Take `C[S+]([O-])CC[C@H](N)C(=O)O` (stereo partly shown) [MetSO, methionine sulfoxide]: the inhibition at 100 µM in assay [1] is less than 20%.

B1: L12-transacetylase: Partially purified E. coli Q13 enzyme that acetylates the amino terminal serine of Met-L12 to form acetyl-Met-L12 (L7) (protein, UniProt P13857 1-179, looked up)
Ribosomal-protein-serine …: MTETIKVSESLELHAVAENHVKPLYQLICKNKTWLQQSLNWPQFVQSEEDTRKTVQGNVMLHQRGYAKMFMIFKEDELIGVISFNRIEPLNKTAEIGYWLDESHQGQGIISQALQALIHHYAQSGELRRFVIKCRVDNPQSNQVALRNGFILEGCLKQAEFLNDAYDDVNLYARIIDSQ
modifications: partially purified
As to B1, the “MetSO-L12 as substrate for acetylation” value in assay [2] is recorded as “not a substrate”. Also, in assay [2] (at all concentrations of Met-L12), the “fraction of Met-L12 acetylated” value was “one-third”. The molecule further registered a Met-L12 acetylated in assay [2] (in 5 min, standard conditions of assay, hydroxyapatite fraction) of 46 nmols per mg protein.
